Where “and” joins values, the source holds several entries; their conditions need not be identical. Equal entries are not always repeated.
Target: SARS-CoV-2 main protease (M^pro), pGEX4T-1 construct, GST removed by thrombin (SARS-CoV-2, UniProt P0DTD1)
Assay: BLI

Binder | Kd
NB2E3 (VHH) VHH: QVQLQESGGGSVQAGGSLRLSCAVSGFIATSCALGWFRQAPGKEREGIATITTDGTTYYVDSVKGRFTISQDNAKNTVALQMNSLKPEDTAMYYCKLCCSGQYCAWGQGTQVTVSS | 2.7 nM
NB1D10 (VHH) VHH: QVQLQESGGGSVQAGGSLRLSCAVSGYSYCNYDLGWFRQAPGKEREGIATIDSDGNTYYVDSVKGRFTISQDNAKNTVALQMNSLKPEDTAMYYCKVGSIASSVPEVSCPPSAPFGYWGQGTQVTVSS | 0.43 nM and 0.431 nM

From paper PMC9169858 (2022)
